Data as given in article PMC11834968 (RSC Chemical Biology, 2025).

B1: SUMO-I3 (single domain antibody I3 fused to an N-terminal 6X His-SUMO-FLAG tag) (VHH)
VHH: EVQLVESGGGLVQPGGSLRLSCAASGFTFSSYAMSWVRQAPGKGLEWVSAINSGGGSTSYADSVKGRFTISRDNAKNTLYLQMNSLKPEDTAVYYCAKARTGWSLAVPSFGSWGQGTQVTVSS
B2: MBP-I3 (single domain antibody I3 with N-terminal MBP fusion and C-terminal 6X His-tag) (VHH)
VHH: B1 VHH

Assays:
[1] = target: Human recombinant fibroblast activation protein alpha (human, UniProt Q12884, glycosylated (sites not given)); test: cross-linking + other: mass photometry
Human recombinant fibroblast activation protein alpha, sequence (Q12884 27-760): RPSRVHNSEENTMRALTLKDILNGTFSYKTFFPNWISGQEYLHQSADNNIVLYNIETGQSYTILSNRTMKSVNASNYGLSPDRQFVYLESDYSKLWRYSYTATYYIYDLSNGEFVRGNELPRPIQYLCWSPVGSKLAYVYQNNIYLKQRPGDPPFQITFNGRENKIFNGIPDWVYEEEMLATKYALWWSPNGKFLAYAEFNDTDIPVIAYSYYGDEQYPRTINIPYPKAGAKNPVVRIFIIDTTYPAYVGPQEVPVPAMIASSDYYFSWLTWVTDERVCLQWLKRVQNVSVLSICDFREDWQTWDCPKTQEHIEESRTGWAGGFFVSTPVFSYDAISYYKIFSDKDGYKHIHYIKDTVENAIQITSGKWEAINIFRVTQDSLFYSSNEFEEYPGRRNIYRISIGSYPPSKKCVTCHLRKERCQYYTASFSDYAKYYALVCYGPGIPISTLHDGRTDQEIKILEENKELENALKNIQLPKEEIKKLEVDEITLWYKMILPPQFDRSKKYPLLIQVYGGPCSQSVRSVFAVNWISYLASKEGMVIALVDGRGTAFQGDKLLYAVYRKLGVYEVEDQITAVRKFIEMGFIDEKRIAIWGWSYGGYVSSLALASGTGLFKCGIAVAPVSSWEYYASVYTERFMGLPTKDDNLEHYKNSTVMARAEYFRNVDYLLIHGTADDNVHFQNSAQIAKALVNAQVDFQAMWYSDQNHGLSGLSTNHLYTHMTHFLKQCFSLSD

[2] = target: Biotinylated dipeptidyl peptidase IV (DPP4) (Homo sapiens, UniProt P27487, biotin (site not given)); test: BLI
Biotinylated dipeptidyl peptidase IV (DPP4), sequence (P27487 39-766): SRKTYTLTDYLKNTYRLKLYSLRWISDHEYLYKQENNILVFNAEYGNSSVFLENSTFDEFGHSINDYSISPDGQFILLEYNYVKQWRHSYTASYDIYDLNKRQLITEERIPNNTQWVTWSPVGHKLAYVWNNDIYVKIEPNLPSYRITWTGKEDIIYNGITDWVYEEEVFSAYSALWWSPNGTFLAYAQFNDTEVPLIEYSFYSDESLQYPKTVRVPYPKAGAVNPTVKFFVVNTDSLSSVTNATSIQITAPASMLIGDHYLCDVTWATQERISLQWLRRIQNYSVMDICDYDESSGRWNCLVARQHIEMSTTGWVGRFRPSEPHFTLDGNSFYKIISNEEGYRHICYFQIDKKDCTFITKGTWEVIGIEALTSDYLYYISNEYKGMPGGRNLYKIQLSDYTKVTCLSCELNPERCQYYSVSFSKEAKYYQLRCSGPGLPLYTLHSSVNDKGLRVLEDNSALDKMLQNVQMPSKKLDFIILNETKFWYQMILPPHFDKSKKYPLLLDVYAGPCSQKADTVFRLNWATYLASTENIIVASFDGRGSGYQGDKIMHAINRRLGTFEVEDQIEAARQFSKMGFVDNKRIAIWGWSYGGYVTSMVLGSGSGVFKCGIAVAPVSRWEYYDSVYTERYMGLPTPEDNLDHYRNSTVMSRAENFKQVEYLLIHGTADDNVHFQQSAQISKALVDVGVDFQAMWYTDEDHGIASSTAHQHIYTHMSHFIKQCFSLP

Binder	stoichiometry N [1]	binding result [2]
B1	1	–
B2	–	no binding
